Measured values taken from PMC10397247.

Key:
Assay in all cases: two-hybrid library CCNG1;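 note: natural log of median RNA to DNA barcode read ratio; higher means stronger binding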
O9 = biological target: T1, O9
T1 chain: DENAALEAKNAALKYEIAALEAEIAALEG

O7 = biological target: T2, O7
T2 chain: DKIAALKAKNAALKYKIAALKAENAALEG

O6 = biological target: T3, O6
T3 chain: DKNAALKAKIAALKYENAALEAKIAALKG

O8 = biological target: T4, O8
T4 chain: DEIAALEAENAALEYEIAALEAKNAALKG

4H4001-bN = biological target: T5, 4H4001-bN
T5 chain: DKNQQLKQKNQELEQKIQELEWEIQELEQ

4H607-bN = biological target: T6, 4H607-bN
T6 chain: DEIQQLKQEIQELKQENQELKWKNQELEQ

4H908-bN = biological target: T7, 4H908-bN
T7 chain: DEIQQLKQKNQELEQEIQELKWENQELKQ

4H338-bN = biological target: T8, 4H338-bN
T8 chain: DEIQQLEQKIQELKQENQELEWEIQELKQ

4H717-bN = biological target: T9, 4H717-bN
T9 chain: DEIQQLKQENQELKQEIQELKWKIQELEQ

4H883-bN = biological target: T10, 4H883-bN
T10 chain: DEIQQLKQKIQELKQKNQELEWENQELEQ

4H568-bN = biological target: T11, 4H568-bN
T11 chain: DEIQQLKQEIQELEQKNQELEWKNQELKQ

4H687-bN = biological target: T12, 4H687-bN
T12 chain: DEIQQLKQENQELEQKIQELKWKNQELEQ

4H3782-bN = biological target: T13, 4H3782-bN
T13 chain: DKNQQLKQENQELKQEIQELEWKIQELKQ

4H953-bN = biological target: T14, 4H953-bN
T14 chain: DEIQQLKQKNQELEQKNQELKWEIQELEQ

4H3354-bN = biological target: T15, 4H3354-bN
T15 chain: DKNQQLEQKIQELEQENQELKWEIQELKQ

4H454-bN = biological target: T16, 4H454-bN
T16 chain: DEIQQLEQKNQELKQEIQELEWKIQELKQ

4H967-bN = biological target: T17, 4H967-bN
T17 chain: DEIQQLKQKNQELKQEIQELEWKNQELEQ

4H797-bN = biological target: T18, 4H797-bN
T18 chain: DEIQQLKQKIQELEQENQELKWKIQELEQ

4H754-bN = biological target: T19, 4H754-bN
T19 chain: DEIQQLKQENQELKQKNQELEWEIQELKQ

4H918-bN = biological target: T20, 4H918-bN
T20 chain: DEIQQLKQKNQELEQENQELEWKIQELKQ

4H3427-bN = biological target: T21, 4H3427-bN
T21 chain: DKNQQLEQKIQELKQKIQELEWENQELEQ

4H72-bN = biological target: T22, 4H72-bN
T22 chain: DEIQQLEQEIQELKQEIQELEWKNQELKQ

4H3855-bN = biological target: T23, 4H3855-bN
T23 chain: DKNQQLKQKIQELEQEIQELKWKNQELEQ

4H3926-bA = biological target: T24, 4H3926-bA
T24 chain: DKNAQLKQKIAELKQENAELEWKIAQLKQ

4H3974-bA = biological target: T25, 4H3974-bA
T25 chain: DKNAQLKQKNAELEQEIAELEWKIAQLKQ

4H3858-bA = biological target: T26, 4H3858-bA
T26 chain: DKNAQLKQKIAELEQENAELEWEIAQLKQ

4H626-bA = biological target: T27, 4H626-bA
T27 chain: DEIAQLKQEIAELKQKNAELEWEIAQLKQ

4H591-bA = biological target: T28, 4H591-bA
T28 chain: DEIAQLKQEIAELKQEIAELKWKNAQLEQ

4H3628-bA = biological target: T29, 4H3628-bA
T29 chain: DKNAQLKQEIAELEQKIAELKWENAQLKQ

4H850-bA = biological target: T30, 4H850-bA
T30 chain: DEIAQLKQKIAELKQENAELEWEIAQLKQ

4H3817-bA = biological target: T31, 4H3817-bA
T31 chain: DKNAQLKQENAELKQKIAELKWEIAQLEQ

4H570-bA = biological target: T32, 4H570-bA
T32 chain: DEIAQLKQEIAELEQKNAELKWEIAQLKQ

4H906-bA = biological target: T33, 4H906-bA
T33 chain: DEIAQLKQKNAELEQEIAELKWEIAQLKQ

Binder: DKNAALKAKIAALKYENAALEAKIAALKG [O6]
- interaction score (O9): -0.62
- interaction score (O7): -2.14
- interaction score (O6): -2.52
- interaction score (O8): -1.47

Binder: DKNQQLEQKIQELEQENQELKWEIQELKQ [4H3354-bN]
- interaction score (4H4001-bN): -0.318
- interaction score (4H607-bN): -0.0582
- interaction score (4H908-bN): -0.992
- interaction score (4H338-bN): -0.511
- interaction score (4H717-bN): -0.894
- interaction score (4H883-bN): -0.871
- interaction score (4H568-bN): -0.364
- interaction score (4H687-bN): -1.25
- interaction score (4H3782-bN): -1.06
- interaction score (4H953-bN): -0.946
- interaction score (4H3354-bN): 1.43
- interaction score (4H454-bN): -0.726
- interaction score (4H967-bN): -1.24
- interaction score (4H797-bN): -0.685
- interaction score (4H754-bN): -0.289
- interaction score (4H918-bN): -0.605
- interaction score (4H3427-bN): -0.405
- interaction score (4H72-bN): -1.09
- interaction score (4H3855-bN): -0.269

Binder: DKNAQLKQEIAELEQKIAELKWENAQLKQ [4H3628-bA]
- interaction score (4H3926-bA): 0.307
- interaction score (4H3974-bA): 1.31
- interaction score (4H3858-bA): -0.214
- interaction score (4H626-bA): -1.6
- interaction score (4H591-bA): -0.511
- interaction score (4H3628-bA): 0.549
- interaction score (4H850-bA): 0.124
- interaction score (4H3817-bA): 0.612
- interaction score (4H570-bA): -0.226
- interaction score (4H906-bA): -0.866
